Common to all, as to test: co-IP; HEK293 cells co-transfected with AnkB-220-HA (WT or mutant) and NrCAM plasmids in equimolar amounts; Brij98 lysate diluted in PBS, 0.1% TritonX-100; AnkB-HA precipitated with mouse anti-HA on Protein A/G magnetic beads overnight at 4 °C; blot for NrCAM, reprobed with anti-HA; NrCAM/AnkB ratio by densitometry
The target in assay [1] is AnkB-220-HA A373V (maternally inherited ASD missense mutation) (human).
The target of assay [2] is AnkB-220-HA H374A (human).
Assay [3] concerns the target AnkB-220-HA H374W (human).
In assay [4] the target is AnkB-220-HA R297E (human).
The target of assay [5] is AnkB-220-HA R308E (human).

The values below come from publication PMC12681835.

On to “Neuron-glial related L1-CAM (NrCAM), mouse, WT (natural protein)”, for which the fold increase of co-immunoprecipitation compared to WT AnkB in assay [1] was 1.7 fold. Further, the percent decrease of co-immunoprecipitation compared to WT AnkB in assay [2] came out at 80%; in assay [3], 80%; in assay [4], 60%; in assay [5], 90%.
